Assay results from CN115043938A (DUAN LIANGWEI; JIANG ZHIHUA; WANG HUI, dated 2022).

Molecular target: SARS-CoV-2 Beta S蛋白 (假病毒) (SARS-CoV-2 Beta, UniProt P0DTC2 14-1273)
Assay: cell-based or functional assay

B1: 抗体Amb2 (antibody, V domains shown)
VH: EVQLLESGPGLVKPSETLSLTCTVSGGSISNSSYYWGWIRQPPGKGLEWIGSIYYSGSTYYNPSLKSRVTISVDTSKNQFSLKLSSVTAADTGVYYCASWLYGDPISFDYWGQGTLVTVSS
VL: not shown
  假病毒中和 IC50: 0.0452 µg/mL

B2: 抗体Amb1 (antibody, V domains shown)
VH: EVQLLESGTEVKKPGSSVKVSCKASGGTFSSYAISWVRQAPGQGLEWMGGIIPILGIANYAQKFQGRVTITADKSTSTAYMELSSLRSEDTAVYYCARERGYSGYGAAYYFDYWGQGTLVTVSS
VL: QSVLTQAPSVSGAPGQSVTISCTGSSSNIGAGYDVHWYQQLPGTAPKLLIYGNNNRPSGVPDRFSGSKSGTSASLAITGLQAEDEADYYCQSYDSSLSKGVFGGGTKLTVL
  假病毒中和 IC50: 0.0266 µg/mL
